Data as given in publication PMC9016638 (bioRxiv, 2022).
No end group written: not given here. *: point of attachment. Biotin = O=C1N[C@H]2[C@H](CS[C@H]2CCCCC(=O)*)N1

Assays:
Assay in all cases: […]
[1] = target: T1, SARS-CoV-2 S2 peptide 42 (SARS-CoV-2 Wuhan-Hu-1, UniProt P0DTC2)
T1 chain: Biotin-PSKPSKRSFIEDLLF

[2] = target: T2, SARS-CoV-2 S2 peptide 43 (SARS-CoV-2 Wuhan-Hu-1, UniProt P0DTC2)
T2 chain: Biotin-PSKRSFIEDLLFNKV

[3] = target: T3, SARS-CoV-2 S2 peptide 44 (SARS-CoV-2 Wuhan-Hu-1, UniProt P0DTC2)
T3 chain: Biotin-RSFIEDLLFNKVTLA

Measured: binding result

B1: COV44-62 (antibody, V domains shown)
VH: QMQLMQSGAEVKKPGASVTVSCKASGDTFSDYRIHWVRQAPGQGLEWMGRMNPKSGDTNFAQKFQGRVTMTRDMSINTAYMTLSGLTFDDTALYYCASLLIVGGFDPLDDFEVWGQGTMVTISS
VL: QSALTQPPSASGSPGQSVTISCSGTSSDVGGYNFVSWYQHHPGKAPKILIYEVTKRPSGVPDRFSGSKSGNTASLTVSGLQAEDEADYYCSSYGGTNNLLFGGGTKLTVL
binds: all assays above

B2: COV44-79 (antibody, V domains shown)
VH: QVQLVESGGGVVQPGRSLRLSCAASGLTFSGYAMHWVRQAPGKGLEWVAVISRDARNKYYADSVKGRFTISRDNSKKTVYLEMNSLRVEDTAVYYCAILIIPGITEPGSPDALDIWGQGTMVSVSS
VL: DIQMTQSPSSMSASVGDRVTITCRASQDISKWLAWYQQRPGKAPKLLIYAASSLQSGVPSRFSGSGSGTDFTLTISSLQPEDFATYYCQQASSFPWSITFGQGTRLEIR
binds: all assays above
